Consider one substance from PMC2111966.

The target in this experiment is Acanthamoeba actin (Acanthamoeba). Put plainly: co-sedimentation.

For Acanthamoeba actin (natural protein), the percent of soluble G-actin converted into an insoluble form is > 95%.
